Measurements from article PMC6497955, “Development and structural characterization of an engineered multi-copper oxidase reporter of protein–protein interactions” (The Journal of Biological Chemistry, 2019).
Changes are numbered by the printed parent chain.

B1: CueO-PM2 (designed binder)
chain: AERPTLPIPDLLTTDARNRIQLTIGAGQSTFGGKTATTWGYNGNLLGPAVKLQRGKAVTVDIYNQLTEETTLHWHGLEVPGEVDGGPQGIIPPGGKRSVTLNVDQPAATCWFHPHQHGKTGRQVAMGLAGLVVIEDDEILKLMLPKQWGIDDVPVIVQDKKFSADGQIDYQLDVMTAAVGWFGDTLLTNGAIYPQHAAPRGWLRLRLLNGCNARSLNFATSDNRPLYVIASDGGLLPEPVKVSELPVLMGERFEVLVEVNDNKPFDLVTLPVSQMGMAIAPFDKPHPVMRIQPIAISASGALPDTLSSLPALPSLEGLTVRKLQLSMDPILDMMGMQMLMEKYGDQAMAGMDHSQMTSFAEYWALLSMNHGGKFDFHHANKINGQAFDMNKPMFAAAKGQYERWVISGVGDMMLHPFHIHGTQFRILSENGKPPAAHRAGWKDTVKVEGNVSEVLVKFNHDAPKEHAYMAHCHLLEHEDTGMMLGFTV
B2: MDM2(6–125) (domain or fragment, UniProt Q00987 6-125, looked up)
chain: MSVPTDGAVTTSQIPASEQETLVRPKPLLLKLLKSVGAQKDTYTMKEVLFYLGQYIMTKRLYDEKQQHIVYCSNDLLGDLFGVPSFSVKEHRKIYTMIYRNLVVVNQQESSDSGTSVSEN

Assays:
MDM2(6–125) = biological target: B2; test: cell-based or functional assay
CueO-PMI = biological target: T1, CueO-PMI (E. coli, UniProt P36649 29-516, M358I | PMI peptide insert (translated from primers 13 and 14, Table 3: 385-395 …)); test: fluorescence polarisation; competitive fluorescence anisotropy; CueO proteins titrated against 150 nM MDM2(6–125) and 50 nM FITC-labeled 12.1 peptide; PBS, 3% DMSO, 0.1% Tween 20; apparent Kd; conditions: both partners purified
T1 construct: signal peptide in the construct; source: E. coli BL21(DE3), purified (HisTrap)
T1 sequence (looked up): B1 chain with A364N

CueO-12.1 = biological target: T2, CueO-12.1 (E. coli, UniProt P36649 29-516, M358I | 12.1 peptide replaced residues 384–394 (translated from primers 9 and …)); test: as above; conditions: both partners purified
T2 construct: signal peptide in the construct; source: E. coli BL21(DE3), purified (HisTrap)
T2 sequence (looked up): B1 chain with T357P, S358R, A360M, E361D, A364E, L365G, S367N

CueO (M358I) = biological target: T3, CueO (M358I) (E. coli, UniProt P36649 29-516, M358I); test: as above; conditions: both partners purified
T3 construct: signal peptide in the construct (primer 1 begins at the precursor's ATG); E. coli multi-copper oxidase CueO, gene amplified from JM109 genomic DNA with primers 1 and 2; The M358I mutation arose during cloning and is present in all variants; The signal peptide may be cut in E. coli (surmise; the solved variants are modelled from residue 29 or 30); source: E. coli BL21(DE3), purified (HisTrap)
T3 sequence (looked up): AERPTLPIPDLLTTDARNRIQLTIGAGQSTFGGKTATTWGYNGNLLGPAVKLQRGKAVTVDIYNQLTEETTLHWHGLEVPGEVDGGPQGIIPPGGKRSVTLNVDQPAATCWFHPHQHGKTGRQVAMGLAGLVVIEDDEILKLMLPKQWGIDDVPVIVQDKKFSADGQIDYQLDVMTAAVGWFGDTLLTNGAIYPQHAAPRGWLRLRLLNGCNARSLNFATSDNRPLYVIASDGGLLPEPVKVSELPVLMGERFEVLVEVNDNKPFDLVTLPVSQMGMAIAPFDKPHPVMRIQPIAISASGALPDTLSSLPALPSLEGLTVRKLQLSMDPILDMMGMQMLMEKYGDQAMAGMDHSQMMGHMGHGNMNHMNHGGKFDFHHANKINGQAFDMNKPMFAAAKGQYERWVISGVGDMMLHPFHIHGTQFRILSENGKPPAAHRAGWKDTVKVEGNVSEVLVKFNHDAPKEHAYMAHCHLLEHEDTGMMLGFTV

CueO-PM2 = biological target: B1; test: as above; conditions: both partners purified

Row | Binder | kcat of syringaldazine oxidation by CueO-PM2 preincubated with 10 μM MDM2, against CueO-PM2 alone (MDM2(6–125)) | Kd (CueO-PMI) | Kd (CueO-12.1) | Kd (CueO (M358I)) | Kd (CueO-PM2)
1 | B1 | ~1.6 fold | – | – | – | –
2 | B2 | – | 28 nM | 722 nM | 44300 nM | 25 nM
